According to PMC5218393:
Numbering of substitutions follows the chain as printed. Names may count otherwise. Blank lines part the entries; values can stand above or below the binder they belong to.

Target: C7 scFv (soluble, purified)
Experiment: competition ELISA
Details: chain shown with the change, competition format: a low value means the soluble protein binds the scFv, read off a plot; for other: Relative binding (residual antibody binding to coated antigen with the mutant protein as competitor): C7 scFv 0.6 μg/ml mixed with the mutant protein; for other: Relative binding (residual antibody binding to coated Lu-Fc with the mutant protein as competitor): mutant protein mixed with diluted C7 scFv, wells coated with Lu-Fc

Sequence of C7 scFv (soluble, purified) (chain, as listed by the source, chain 1 of 2): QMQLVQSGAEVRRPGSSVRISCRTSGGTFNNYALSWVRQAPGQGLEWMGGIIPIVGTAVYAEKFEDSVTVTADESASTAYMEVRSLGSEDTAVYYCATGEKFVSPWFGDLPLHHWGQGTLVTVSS
Sequence of C7 scFv (soluble, purified) (chain, as listed by the source, chain 2 of 2): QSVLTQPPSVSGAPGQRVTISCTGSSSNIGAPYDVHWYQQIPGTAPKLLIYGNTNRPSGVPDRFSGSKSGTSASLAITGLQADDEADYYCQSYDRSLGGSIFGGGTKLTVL

other: Relative binding (residual antibody binding to coated Lu-Fc with the mutant protein as competitor): 87%
B4: recombinant Lu extracellular domain fused with an Fc-Tag (Lu-Fc), P50895 R247Q (protein)
chain: EVRLSVPPLVEVMRGKSVILDCTPTGTHDHYMLEWFLTDRSGARPRLASAEMQGSELQVTMHDTRGRSPPYQLDSQGRLVLAEAQVGDERDYVCVVRAGAAGTAEATARLNVFAKPEATEVSPNKGTLSVMEDSAQEIATCNSRNGNPAPKITWYRNGQRLEVPVEMNPEGYMTSRTVREASGLLSLTSTLYLRLRKDDRDASFHCAAHYSLPEGQHGRLDSPTFHLTLHYPTEHVQFWVGSPSTPAGWVREGDTVQLLCRGDGSPSPEYTLFRLQDEQEEVLNVNLEGNLTLEGVTRGQSGTYGCRVEDYDAADDVQLSKTLELRVAYLDPLELSEGKVLSLPLNSSAVVNCSVHGLPTPALRWTKDSTPLGDGPMLSLSSITFDSNGTYVCEASLPTVPVLSRTQNFTLLVQGSPELKTAEIEPKADGSWREGDEVTLICSARGHPDPKLSWSQLGGSPAEPIPGRQGWVSSSLTLKVTSALSRDGISCEASNPHGNKRHVFHFGTVSPQTSQA

other: Relative binding (residual antibody binding to coated antigen with the mutant protein as competitor) (parent: est. 5): 4%
B5: recombinant Lu extracellular domain fused with an Fc-Tag (Lu-Fc), P50895 R175N (protein)
chain: B4 chain with R144N, Q216R

other: Relative binding (residual antibody binding to coated Lu-Fc with the mutant protein as competitor): 18%
B9: recombinant Lu extracellular domain fused with an Fc-Tag (Lu-Fc), P50895 S242D (protein)
chain: B4 chain with S211D, Q216R

More lines, now with the values behind:

B1: mouse Lu-Fc (MsLu-Fc), Q9R069 D142A; N168R; H247P (protein)
chain: ELHVSVPPRVEVMRGEQVALDCTPREHPEHYVLEWFLVDGTGARHRLASVEPQGSEFLGTVHSLGRVPPYEVDSRGRLVIAKVQVGDGRDYVCVVKAGAAGTSEATSSVRVFATPEATEVSPNKGTLSVMDQFAQEIATCSSRNGNPVPRITWYRNGQRLEVPMEVNQKGYITIRTVREASGLYSLTSTLYLRLHKDDRDANFHCAAHYDLPSGQHGRLDSPTFRLTLHYPTEHVEFWVGSPSTTEGWVREGDAVQLLCQGDGSPSPEYSFFRQQGTQEEQLNVNLKGNLTLERVHRNQSGIYGCRVEDYDADEEVQLVKKLKLHVAYLDPLELSVPEELFVFLNSSSTVVNCSARGLPTPTVRWTKDSVTLADGPMLSLQSVTFDSAGTYTCEASTPTVPLLSRTQSFQLIVQGAPELKPNEIMPKSGNSWTEGDEVMLTCSARGFPEPKLTWSQRGDTPAEPPFEGRGWKSSSLMVKVTSALSREGVSCEASNIHGKKGHVFHFGSVAPQTAQA
other: Relative binding (residual antibody binding to coated antigen with the mutant protein as competitor) (parent: est. 110): 95%

B2: mouse Lu-Fc (MsLu-Fc), Q9R069 Q240R (protein)
chain: B1 chain with A117D, R143N, Q215R, P222H
other: Relative binding (residual antibody binding to coated Lu-Fc with the mutant protein as competitor): 14%

B3: recombinant Lu extracellular domain fused with an Fc-Tag (Lu-Fc), P50895 H257R (protein)
chain: B4 chain with Q216R, H226R
other: Relative binding (residual antibody binding to coated Lu-Fc with the mutant protein as competitor): 3%

B6: recombinant Lu extracellular domain fused with an Fc-Tag (Lu-Fc), P50895 E245S (protein)
chain: B4 chain with E214S, Q216R
other: Relative binding (residual antibody binding to coated Lu-Fc with the mutant protein as competitor): 22%

B7: recombinant Lu extracellular domain fused with an Fc-Tag (Lu-Fc), P50895 A149D (protein)
chain: B4 chain with A118D, Q216R
other: Relative binding (residual antibody binding to coated antigen with the mutant protein as competitor) (parent: est. 5): 3%

B8: recombinant Lu extracellular domain fused with an Fc-Tag (Lu-Fc), P50895 P254H (protein)
chain: B4 chain with Q216R, P223H
other: Relative binding (residual antibody binding to coated antigen with the mutant protein as competitor) (parent: est. 5): 3%
